The record followed here is publication PMC4118376 (Sensors (Basel, Switzerland), 2014).

Numbering of substitutions follows the chain as printed.

The labels stand for the following.
B1: sdAb D9 (VHH)
VHH: EVQLQASGGGLAQAGDSLRLSCAASIRTFGSYAMGWFRQAPGKEREFVAAISWSGGDTYADSAKGRFTISRDNAKNMMYLQMNSLAPEDTAVYFCAIVEAKYYISKDARDYGYWGQGTQVFVSS
notes: source: E. coli Rosetta (DE3), periplasm, purified (IMAC, size exclusion chromatography)
B2: sdAb H9-H11 (VHH)
VHH: DVQLQASGGGLVQPGGSLRLSCAASESAVRIGFMGWHRQAPGNQRERVAQISSTGLPTYADAVKGRFTISRDNTKNTVYLQMNSLNADDTAVYFCNARLYDGTSVWGQGTQVTVSS
notes: source: E. coli, periplasm, purified (IMAC, size exclusion chromatography)
B3: sdAb S222-A2 (VHH)
VHH: B2 VHH with Q13E, E26G, R30S, N43K, L56I, T58N, A62T, V78M, V105A
notes: as for B2
B4: sdAb B12 (VHH)
VHH: EVQLQASGGGLVQAGGPLRLTCAVSGPTFGSYALGWFRQAPGKEREFVAAVSWSGGDTYADSVKGRFIISRDNAKNTVYLQMNNLEPEDTAVYSCARMQDRYYISKDAKDYGYWGQGTQVTVSS
notes: as for B1
B5: sdAb B1 (VHH)
VHH: B4 VHH with P17S, S62T, V63A, T121I
notes: as for B1
B6: sdAb H9 (VHH)
VHH: B4 VHH with P17S, G117E
notes: as for B1
B7: sdAb H9-B11 (VHH)
VHH: DVQLQASGGGLVQVGGSLRLSCAASGSTFRIGYMGWYRQAPGKPRELVARISSGGTTDYLDFVKDRFTISRDNAKNTVYLQMSSLKPEDTAVYYCNVVNYRANEYWGQGTQVTVSS
notes: as for B2
B8: sdAb H9-D7 (VHH)
VHH: B7 VHH with G35S, Y37H, P44S, F62S, A74T, S83N, K86E, N99D, T113A
notes: as for B1
B9: sdAb H12 (VHH)
VHH: EVQLQASGGGLVLTGGSLRLSCAASGRNFSNYAMAWFRQAPGKEREFVGTISWYTNTNYANSVKGRFSISRDNAKNTVYLQMSSLKPEDTAVYYCAAAPAMYYNPYTRESEYGYWGQGTQVTVSS
notes: as for B1
B10: sdAb E9 (VHH)
VHH: B9 VHH with L13Q, T14A, N28D, N31D, N61D, M101R, T107K
notes: as for B1
B11: sdAb H9-A1 (VHH)
VHH: EVQLQASGGGLVQPGGSLRLSCAASGSAVSIGFMAWYRQAPGKQRELVARISSSGLPDYADTVKGRFTISRDNTRKTVSLQMNSLNPDDTAVYYCNARLYDGSSAWGQGTQVTVSS
notes: as for B1
B12: sdAb E2 (VHH)
VHH: EVQLQASGGGLVQAGGSLRLTCAASGRTFGSYAMGWFRQAPGKEREFVAAISWSGGDTYADSVKGRFTISRDNAKNTVYLQMNSLAPEDTAVYSCAAVGARYYISKDAKDYGYWGQGTQVTVSS
notes: as for B1
B13: sdAb F1 (VHH)
VHH: B12 VHH with E1D, G26L, R27H, A60S, A86E, G99E, K106T
notes: as for B1
B14: sdAb A10 (VHH)
VHH: EVQLQASGGGLVRAGGTLRLTCDATTPTFGSYAMGWFRQAPGKEREFVSAISWSGGDTYADSVKGRFTISRDNTRNRVYLQMNDLEPDDTAIYTCARTTARYYISKDAKDYDYWGQGTQVTVSS
notes: as for B1

Chain of staphylococcal enterotoxin B (Staphylococcus aureus (P01552 28-266): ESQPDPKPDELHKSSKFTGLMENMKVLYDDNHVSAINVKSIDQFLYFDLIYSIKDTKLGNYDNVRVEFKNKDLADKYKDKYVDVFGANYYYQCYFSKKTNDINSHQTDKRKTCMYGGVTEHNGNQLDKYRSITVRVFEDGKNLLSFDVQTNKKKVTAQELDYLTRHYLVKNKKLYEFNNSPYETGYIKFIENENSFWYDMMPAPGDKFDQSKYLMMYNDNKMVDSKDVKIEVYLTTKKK

The test addresses staphylococcal enterotoxin B (Staphylococcus aureus (strain not …, UniProt P01552)). Description: SPR. As to conditions: both partners purified.
On to B1, for which the Kd came to 0.111 nM, the koff amounted to 0.000277 s⁻¹ and the kon came out at 2.49e+06 M⁻¹ s⁻¹.
The like results for B2 were, in that order, 1.56 nM, 0.000755 s⁻¹ and 485000 M⁻¹ s⁻¹.
Regarding B3, the affinity, expressed as Kd, was 4.16 nM; the koff was determined as 0.00506 s⁻¹; the kon is 1.22e+06 M⁻¹ s⁻¹.
The like results for B4 were, in that order, 0.232 nM, 0.000321 s⁻¹ and 1.39e+06 M⁻¹ s⁻¹.
The like results for B5 were, in that order, 0.2 nM, 0.00039 s⁻¹ and 1.95e+06 M⁻¹ s⁻¹.
The like results for B6 were, in that order, 0.09 nM, 0.000318 s⁻¹ and 3.53e+06 M⁻¹ s⁻¹.
As for B7, the affinity, expressed as Kd, was 3.32 nM; the dissociation rate constant (koff) was 0.000512 s⁻¹; the kon is 154000 M⁻¹ s⁻¹.
On the same counts, the results for B8 are 1.1 nM, 0.000192 s⁻¹ and 174000 M⁻¹ s⁻¹.
The like results for B9 were, in that order, 0.272 nM, 0.000607 s⁻¹ and 2.23e+06 M⁻¹ s⁻¹.
The like results for B10 were, in that order, 0.533 nM, 0.000589 s⁻¹ and 1.11e+06 M⁻¹ s⁻¹.
The molecule B11 had a Kd of 1.25 nM, an off-rate constant (koff) of 0.00227 s⁻¹ and a kon of 1.8e+06 M⁻¹ s⁻¹.
The like results for B12 were, in that order, 0.273 nM, 0.00351 s⁻¹ and 1.28e+07 M⁻¹ s⁻¹.
On the same counts, the results for B13 are 0.65 nM, 0.00042 s⁻¹ and 646000 M⁻¹ s⁻¹.
B14 displayed a dissociation constant Kd of 0.158 nM, a koff of 0.000277 s⁻¹ and an on-rate constant (kon) of 1.76e+06 M⁻¹ s⁻¹.

What is called Kd is a measure of binding affinity in units of concentration. As usually defined, the koff is a measure of how fast the partners let go of each other. A high value points to fast dissociation. In general, kon refers to a measure of how fast the partners come together. A high value points to fast association.
